Measurements as given in paper PMC3548785, “Identification of a Binding Site for ASF/SF2 on an RNA Fragment Derived from the Hepatitis delta Virus Genome”.

B1: R156G (structured_RNA)
RNA: CUCCCUCCGCGGUUCUUCCUCGACUCGGCCCGGCUCAUCUCGGCUAGAGGCGGCAGUCCUCAGUACUCUUACUCUUUUCUGUAAAGAGGAGACUGCUGGACUCGCCGCCCGAGGCCGAGCCUGAGCCAAGUGCCGAGCGAGGAGACGCGGGGGGAG
B2: R161G (structured_RNA)
RNA: UCUCUCCCUCCGCGGUUCUUCCUCGACUCGGCCCGGCUCAUCUCGGCUAGAGGCGGCAGUCCUCAGUACUCUUACUCUUUUCUGUAAAGAGGAGACUGCUGGACUCGCCGCCCGAGGCCGAGCCUGAGCCAAGUGCCGAGCGAGGAGACGCGGGGGGAGGA
B3: R199G (structured_RNA)
RNA: GGGACUGCUCGAGGAUCUCUUCUCUCCCUCCGCGGUUCUUCCUCGACUCGGCCCGGCUCAUCUCGGCUAGAGGCGGCAGUCCUCAGUACUCUUACUCUUUUCUGUAAAGAGGAGACUGCUGGACUCGCCGCCCGAGGCCGAGCCUGAGCCAAGUGCCGAGCGAGGAGACGCGGGGGGAGGAUCAGCACCCGAGAGGGGAUGU
B4: R177G (structured_RNA)
RNA: GGAUCUCUUCUCUCCCUCCGCGGUUCUUCCUCGACUCGGCCCGGCUCAUCUCGGCUAGAGGCGGCAGUCCUCAGUACUCUUACUCUUUUCUGUAAAGAGGAGACUGCUGGACUCGCCGCCCGAGGCCGAGCCUGAGCCAAGUGCCGAGCGAGGAGACGCGGGGGGAGGAUCAGCACC
B5: R47G (structured_RNA)
RNA: AGUCCUCAGUACUCUUACUCUUUUCUGUAAAGAGGAGACUGCUGGACU
B6: R177GΔASF (structured_RNA)
RNA: GGAUCUCUUCCGCGGUUCUUCCUCGACUCGGCCCGGCUCAUCUCGGCUAGAGGCGGCAGUCCUCAGUACUCUUACUCUUUUCUGUAAAGAGGAGACUGCUGGACUCGCCGCCCGAGGCCGAGCCUGAGCCAAGUGCCGAGCGAGGAGACGCGGGUCAGCACC

Assays:
[1] = target: T1, His-ASF/SF2 (UniProt Q07955 1-248); assay: intrinsic tryptophan fluorescence quenching; no appKD could be calculated; 100 mM KCl, 20 mM Tris-HCl pH 7.5, room temperature, 100 nM His-ASF/SF2, excitation 280 nm, emission 340 nm; conditions: protein: recombinant; tags: C-terminal His6; hairpin
[2] = target: T1, His-ASF/SF2; assay: intrinsic tryptophan fluorescence quenching; apparent KD; 100 mM KCl, 20 mM Tris-HCl pH 7.5, room temperature, 100 nM His-ASF/SF2, excitation 280 nm, emission 340 nm; conditions: protein: recombinant, tags: C-terminal His6
[3] = target: T1, His-ASF/SF2; assay: intrinsic tryptophan fluorescence quenching; no appKD; loss of binding stated; 100 mM KCl, 20 mM Tris-HCl pH 7.5, room temperature, 100 nM His-ASF/SF2, excitation 280 nm, emission 340 nm; conditions: protein: recombinant; tags: C-terminal His6; hairpin

T1 sequence (Q07955 whole entry): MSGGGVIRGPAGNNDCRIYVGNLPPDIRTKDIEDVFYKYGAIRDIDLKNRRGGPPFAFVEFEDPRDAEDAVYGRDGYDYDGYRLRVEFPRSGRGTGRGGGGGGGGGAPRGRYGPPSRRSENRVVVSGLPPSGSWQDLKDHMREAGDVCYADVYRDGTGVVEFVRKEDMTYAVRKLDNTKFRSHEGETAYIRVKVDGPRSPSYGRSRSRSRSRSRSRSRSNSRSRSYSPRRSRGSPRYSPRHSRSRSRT

| Binder | binding result [1] | Kd ([2]; hairpin) | other results |
| --- | --- | --- | --- |
| B1 | no binding |  |  |
| B2 |  | ~900 nM |  |
| B3 |  |  | Kd ([2]; rod-like hairpin): ~640 nM |
| B4 |  | ~870 nM |  |
| B5 | no binding |  |  |
| B6 |  |  | binding result [3]: no binding |
